Test results from publication PMC10754036.

Biological target: PSD95, His tagged recombinant (UniProt P78352)
Assay: BLI

Sequence of PSD95, His tagged recombinant (P78352 whole entry): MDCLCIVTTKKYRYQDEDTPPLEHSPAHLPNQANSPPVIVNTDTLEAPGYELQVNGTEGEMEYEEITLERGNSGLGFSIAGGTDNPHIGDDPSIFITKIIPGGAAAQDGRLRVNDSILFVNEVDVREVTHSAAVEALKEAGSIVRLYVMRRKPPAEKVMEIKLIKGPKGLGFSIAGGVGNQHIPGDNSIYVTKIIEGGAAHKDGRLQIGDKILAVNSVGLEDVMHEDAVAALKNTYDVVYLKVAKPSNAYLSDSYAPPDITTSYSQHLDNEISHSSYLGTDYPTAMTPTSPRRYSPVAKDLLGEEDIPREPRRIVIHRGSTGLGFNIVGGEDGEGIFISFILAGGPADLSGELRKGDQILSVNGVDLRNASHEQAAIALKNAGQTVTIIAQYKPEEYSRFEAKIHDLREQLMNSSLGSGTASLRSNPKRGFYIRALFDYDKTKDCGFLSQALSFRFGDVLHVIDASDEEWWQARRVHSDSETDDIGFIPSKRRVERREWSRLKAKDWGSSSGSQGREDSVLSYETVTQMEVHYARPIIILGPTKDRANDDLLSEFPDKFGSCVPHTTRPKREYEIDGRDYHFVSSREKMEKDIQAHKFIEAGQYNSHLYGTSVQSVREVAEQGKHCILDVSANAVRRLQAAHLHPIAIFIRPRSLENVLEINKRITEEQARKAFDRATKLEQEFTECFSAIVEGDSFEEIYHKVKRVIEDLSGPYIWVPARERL

NS1-SUMO (1918 NS1 covalently fused with SUMO at its C-terminus), His tagged recombinant
Kd: 0.63 µM
